This experiment concerns the target Authentic MERS spike, full-length unstabilized, on the cell surface (MERS-CoV, strain , UniProt K9N5Q8). The experiment is described as follows: flow cytometry on cells. The following applies: one partner purified. On the technique in general: A flow cytometer gives signals particle by particle.

We go through one molecule from article PMC10030117 (eLife, 2023).

Chain of Authentic MERS spike, full-length unstabilized, on the cell surface (K9N5Q8 18-1353): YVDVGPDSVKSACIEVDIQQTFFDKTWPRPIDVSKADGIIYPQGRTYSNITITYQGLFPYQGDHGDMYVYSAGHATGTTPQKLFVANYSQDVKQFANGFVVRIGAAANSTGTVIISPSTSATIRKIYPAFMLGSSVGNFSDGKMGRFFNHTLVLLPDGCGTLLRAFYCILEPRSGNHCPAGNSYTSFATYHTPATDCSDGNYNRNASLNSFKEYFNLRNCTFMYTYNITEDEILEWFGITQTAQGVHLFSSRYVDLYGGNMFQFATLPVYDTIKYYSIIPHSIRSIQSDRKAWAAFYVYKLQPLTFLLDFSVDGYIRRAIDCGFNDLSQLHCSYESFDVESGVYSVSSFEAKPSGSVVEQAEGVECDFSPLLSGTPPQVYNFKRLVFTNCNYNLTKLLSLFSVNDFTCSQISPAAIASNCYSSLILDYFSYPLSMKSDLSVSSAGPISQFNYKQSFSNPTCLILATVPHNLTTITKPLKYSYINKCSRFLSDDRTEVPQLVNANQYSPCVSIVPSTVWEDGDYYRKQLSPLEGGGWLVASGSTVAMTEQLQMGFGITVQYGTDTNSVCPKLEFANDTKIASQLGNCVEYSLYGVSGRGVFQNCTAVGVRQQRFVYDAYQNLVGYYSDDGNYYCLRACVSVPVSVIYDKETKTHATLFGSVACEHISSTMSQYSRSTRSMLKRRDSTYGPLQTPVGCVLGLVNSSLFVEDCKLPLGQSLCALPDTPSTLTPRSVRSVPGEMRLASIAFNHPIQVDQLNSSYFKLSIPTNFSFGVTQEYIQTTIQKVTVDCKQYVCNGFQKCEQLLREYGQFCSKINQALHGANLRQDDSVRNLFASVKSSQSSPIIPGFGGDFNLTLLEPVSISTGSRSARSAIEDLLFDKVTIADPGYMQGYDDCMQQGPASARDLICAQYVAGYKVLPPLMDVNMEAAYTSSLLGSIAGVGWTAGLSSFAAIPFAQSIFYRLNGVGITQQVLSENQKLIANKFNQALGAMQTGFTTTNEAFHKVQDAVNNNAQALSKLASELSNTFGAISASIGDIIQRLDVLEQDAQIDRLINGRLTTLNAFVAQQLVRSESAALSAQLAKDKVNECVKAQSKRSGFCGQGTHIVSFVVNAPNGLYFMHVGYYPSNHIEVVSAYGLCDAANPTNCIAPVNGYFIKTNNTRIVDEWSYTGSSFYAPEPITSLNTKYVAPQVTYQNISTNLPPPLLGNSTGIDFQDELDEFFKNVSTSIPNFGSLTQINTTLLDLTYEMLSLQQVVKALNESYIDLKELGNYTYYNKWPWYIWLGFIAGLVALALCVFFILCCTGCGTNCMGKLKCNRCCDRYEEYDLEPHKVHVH

B1: Antibody RAY53, full-length human IgG1 (antibody, V domains shown)
VH: QVQLVQSGAVVLKPGASVKLSCKASGFNIKNTYIHWLKQAPGQRLEWIGRIGPAIGNTIYAPKFQGKATITTDTSASTAYLELSSLRSEDTAVYYCARYYGSSYYYLDYWGQGTTVTVSS
VL: DIVMTQSPLSVPVTPGEPVSISCRSSKSLLHSNGNTYLYWFLQKPGQSPQLLIARMSTLASGVPDRFSGSGSGTAFTLKISRVEAEDVGVYYCMQYLEYPLTFGAGTKLEIK
For B1, the binding result was “binds”.
